Results reported in the RNAGym collection of RNA variant scans (doi:10.1073/pnas.2313332121).
Fewer inactive variants are shown than the library holds.

B1: TPR 5TU (parent)
chain: GGAUCUUCUCGAUCUAACAAAAAAGACAAAUCUGCCACAAAGCUUGAGAGCAUCUUCGGAUGCAGAGGCGGCAGCCUUCGGUGGCGCGAUAGCGCCAACGUUCUCAACUAUGACACGCAAAACGCGUGCUCCGUUGAAUGGAGUUUAUCAUG

Variants of: B1
Experiment: polymerase ribozyme fitness, log enrichment relative to wild type (log ratio); higher = more active; in vitro selection for triplet polymerase activity
Outline: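 After PCR construction and transcription, each subunit's mutant library from a heterodimeric triplet polymerase ribozyme was annealed with a biotinylated primer, the partner subunit and triplets. Incubation was frozen, at −7 °C, and extended constructs were gel-excised, bound to streptavidin beads and amplified by RT-PCR, in one selection round done in triplicate. Fitness is the logarithm of a genotype's enrichment divided by that of the wild type, from inverse-variance-weighted replicate averages of Illumina-sequenced inputs and outputs. The base of the logarithm is 2, and genotypes needed ≥10 input reads and ≥1 read per output.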

Variant	polymerase ribozyme fitness (log ratio)
GGAUCUUCUCGAUCUAACAAAUAAGACAAAUUUGCCACAAAGCUUGUGAGCAUCUUCGGAUGCAGAGGCGGCAGCCUUCGGUAGCGCGAUAGCGCCAACGUUCUCAACUAUGACACGCAAAACGUGUGCUCCGUUGAAUGGAGUUUAUCAUG	≤ -4.2
GGAUCUUCUCGAUCUAACAAAUAUGACAAAUCUGCCACAAAGCUUGAGAGCAUCUUCGGAUGCAGAGGCGGCAGCCUUCGGUGGCGCGAUAGCGCCAACGUUCUCAACUAUGACACGCAAAACGCGUGCUCCGUUGAAUGUAGUUUAUCAUG	1.41
GGAUCUUCUCGAUCUAACAAAUAAGACAAAUCUGCCACAAAGAUUGAGAGCAUCUUCGGAUGCAGAGGCGGCAGCCUUCGGUGGCACGAAAGCGCCAACGUUCUCAACUAUGACACGCAAAACGCGUGCUCCGUUGAAUGGAGUUUAUCAUG	≤ -4.2
GGAUCUUCUCGAUCUAACAAAUAAGACAAAUCUGCCACAAAGCUUGAGAGCCUCAUCGGAUGCAGAUGCGGCAGCCUUCGGUGGCGCGAUAGCGCCAACGUUCUCAACUAUGACACGCAAAACGCGUGCUCCGUUGAAUGGAGUUUAUCAUG	≤ -4.2
GGAUCUUCUCGAUCUAACAAAGAAGACAAAUCUGCCACAAAGCAUGAGAGCACCUUCGGAUGCAGACGCGGCAGCCUUCGGUGGCGCGAUAGCGCCAAGGUUCUCAACUAUGACACGCAAAACGCAUGCUCCGCUGAAUGGAGUUUAUCAUG	≤ -4.2
GGAUCUUCUCGAUCUAACAAAUAAGACAAAUCUGCCACAAAGCUUGCGAGCAUCGUCGGAUGCAGAGGCGGCAGCCUUCGGUGUCGCGAUAGCGCCAACGUUCUCAACUAUGACACGCAAAACGGGUGCUCCGUUGAAUGGAGUUUAUCAUG	-3.06
GGAUCUUCUCGAUCUAACAAAUAAGACAAAUCUGCCACAAAGCUUGAGAGCAUCUUCGGAUGCAGAGGCGGCAGCCUUCGGUGGCGCGAUAGCGCCAACGUUCUCAACUAUGACACGCAAAACGCGUGCUCCGUUGAAUGGAGUUUAUCAUG	0.491
GGAUCUUCUCGAUCUAACAAAGAAGACAAAUCUGCCACAAAGCUUGAGAGCAUCUUCGGAUGCAGAGGCGGCAGCCUUCGGAAGCGCGAUAGCGCCAACGUUCUUAACUAUGACACGCAAAACGCGUGCUCCGUUGAAUGGAGUUUAUCAUG	0.185
GGAUCUUCUCGAUCUAACAAAUAAGACAUAUCUGCCACUAAGCUUGAGAGCAUCAUCGGAUGCAGAGGCGGCAGCCUUAGGUGGCGCGAUAGGGCCAACGUUCUCAACUAUGACACGCAAAACGCGUGCUCCGUUGAAUGGAGUUUAUCAUG	≤ -4.2
GGAUCUUCUCGAUCUAACAAAUAAGACUAAUCUGCCACAAAGCUUGAGAGCAUCUUCGGAUGCAGAGGCGGCAGCCUUCGGUGGCGCGAUAGCGCCAACGUUCGCAACUAUGACACGCAAAACGCGUGCUCCGUUGAAUGGAGUUUAUCAUG	≤ -4.2
GGAUCUUCUCGAUCUAACAAAGAAGACAAAUCUGCCACAAAGCUUGAGAGCAUCAUCGGAUGCAGAGGCGGCAGCCUUCGGUUGCGCGAUAGCGCCAACGUUCUCAACUAUGACACGCAAAACGCGUGAUCCGUUGAAUGGAGUUUAUCAUG	-3.65
GGAUCUUCUCGAUCUAACAAAUAAGACAAAUCUGCCACAAAGCUUGAGAGCAUCUUCGGAUGCAGAGGCGGCAGCCUUCGGUGGCGCGAUAGCGCCAGCGUUCUCAACUAUGACACGCAAAACGCGUGCUCCGUUGAAUGGAGUUUAUCAUG	-0.232
GGAUCUUCUCGAUCUAACAAAUAAGACAAAUCUGCCACAAAGCUUGUGAGUAUCUUCGGAUGCAGAGGCGGCAGCCUUCGGUGGCGCGAUAGCGACAAUGUUCUCAACUAUGACACGCAAAACGCGUGCUCCGUUGAAUGGAGUUUAUCAUG	-1.72
GGAUCUUCUCGAUCUAACAAAGAAGACAAAUCUGCCACAAAGCUUGAGAGCAUCAUCGGAAGCAGAGGCGGCAGCCUUCGGUGGCGCGAUAGCUCCAACGUUCUCAACUAUGACACGCAAAACGCGUGCUCCGUUGAAUGGAGUUUAUCAUG	-3.37
GGAUCUUCUCGAUCUAACAAAGAAGACAAAUCUGCCACAAAGCUUGAGAGCAACUUCGGAUGCAGGGGCGGGAGCCUUCGGUGGCGCGACAGCGCCAACGUUCUCAACUAUGACACGCAAAACGCGUGCUCCGUUGAAUGGAGUGUAUCAUG	≤ -4.2
GGAUCUUCUCGAUCUAACAAAUAAGACUAAUCUGCCACAAAGCUUGCGAGCAUCUUCGGAUGCAGAGGCGGGAGCCUUCGGUGUCGCGAUAGCGCCAACGUUCUCAACUAUGACACGCAAAACGCGUGCUCCGUUGAAUGGAGUUUAUAAUG	≤ -4.2
GGAUCUUCUCGAUCUAACAAAUAAGACUAAUCUGCCUCAAACCUUGAGAGCAUAUUCGGAUGCAGAGGCGGCAGCCUUCGGUGGCGCGAUAGCGCCAACGUUAUCAACUAUGACACGCAAAACGCGUGCUCCGUUGAAUGGAGUUUAUCAUG	≤ -4.2
GGAUCUUCUCGAUCUAACAAAUAAGACAAAUCUGCCACAAAGAUUGAGAGCAUCUUGGGAUGCAGAGGCGGCAGCCUUCGGUGGCGCGAUAGUGCUAACGUUCUCAACUAUGACACGCAAAACGCGUGCUCCGUUGAAUGGAGUUUAUCAUG	≤ -4.2
GGAUCUUCUCGAUCUAACAAAGAAGACAAAUCUGCCACAAAGCUUGAGAGCAGGCUCGGAUGCAGAGGCGGCGGCCUUCGGUGGCGCGAUCGCGCCAACGUUCUUAACUAUGACAUGCAAAACGCGGGCUCCGUCGAAUGGAGUUUAUCAUG	≤ -4.2
